# Target: gbrap_human GABARAP (UniProt O95166)
# Sequence (O95166 whole entry): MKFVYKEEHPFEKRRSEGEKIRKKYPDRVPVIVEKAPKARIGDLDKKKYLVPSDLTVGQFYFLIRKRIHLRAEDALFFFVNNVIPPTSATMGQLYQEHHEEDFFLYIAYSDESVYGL
row,effect of a mutation on the interaction,Substance
1,with no effect,"Pericentriolar material 1 protein (Homo sapiens), Q15154 L1969P"
2,with no effect,"Pericentriolar material 1 protein (Homo sapiens), Q15154 T1974F"
3,with no effect,"Pericentriolar material 1 protein (Homo sapiens), Q15154 I1954A"
4,with no effect,"Pericentriolar material 1 protein (Homo sapiens), Q15154 I1975W"
5,with no effect,"Pericentriolar material 1 protein (Homo sapiens), Q15154 D1968E"
6,with no effect,"Pericentriolar material 1 protein (Homo sapiens), Q15154 L1969S"
7,with no effect,"Pericentriolar material 1 protein (Homo sapiens), Q15154 K1957A"
8,with no effect,"Pericentriolar material 1 protein (Homo sapiens), Q15154 V1966I"
9,with no effect,"Pericentriolar material 1 protein (Homo sapiens), Q15154 E1961G"
10,with no effect,"Pericentriolar material 1 protein (Homo sapiens), Q15154 I1954D"
11,with no effect,"Pericentriolar material 1 protein (Homo sapiens), Q15154 S1955A"
12,with no effect,"Pericentriolar material 1 protein (Homo sapiens), Q15154 D1959Y"
13,with no effect,"Pericentriolar material 1 protein (Homo sapiens), Q15154 Q1956N"
14,with no effect,"Pericentriolar material 1 protein (Homo sapiens), Q15154 P1970H"
15,with no effect,"Pericentriolar material 1 protein (Homo sapiens), Q15154 L1969E"
16,with no effect,"Pericentriolar material 1 protein (Homo sapiens), Q15154 E1960Q"
17,with no effect,"Pericentriolar material 1 protein (Homo sapiens), Q15154 Q1956P"
18,disrupting interaction strength,"Pericentriolar material 1 protein (Homo sapiens), Q15154 V1964R"
19,with no effect,"Pericentriolar material 1 protein (Homo sapiens), Q15154 P1970W"
20,with no effect,"Pericentriolar material 1 protein (Homo sapiens), Q15154 K1957R"
21,disrupting interaction strength,"Pericentriolar material 1 protein (Homo sapiens), Q15154 V1964W"
22,with no effect,"Pericentriolar material 1 protein (Homo sapiens), Q15154 I1975N"
23,with no effect,"Pericentriolar material 1 protein (Homo sapiens), Q15154 I1975E"
24,with no effect,"Pericentriolar material 1 protein (Homo sapiens), Q15154 Q1956H"
25,with no effect,"Pericentriolar material 1 protein (Homo sapiens), Q15154 N1953V"

# More lines, now with the values behind:
row,Substance,effect of a mutation on the interaction
1,"Pericentriolar material 1 protein (Homo sapiens), Q15154 I1975R",with no effect
2,"Pericentriolar material 1 protein (Homo sapiens), Q15154 L1969W",with no effect
3,"Pericentriolar material 1 protein (Homo sapiens), Q15154 E1961D",with no effect
4,"Pericentriolar material 1 protein (Homo sapiens), Q15154 F1963G",disrupting interaction strength
5,"Pericentriolar material 1 protein (Homo sapiens), Q15154 D1959F",with no effect
6,"Pericentriolar material 1 protein (Homo sapiens), Q15154 K1972F",with no effect
7,"Pericentriolar material 1 protein (Homo sapiens), Q15154 E1967A",with no effect
8,"Pericentriolar material 1 protein (Homo sapiens), Q15154 L1969G",with no effect
9,"Pericentriolar material 1 protein (Homo sapiens), Q15154 T1974D",with no effect
10,"Pericentriolar material 1 protein (Homo sapiens), Q15154 D1968K",with no effect
11,"Pericentriolar material 1 protein (Homo sapiens), Q15154 S1955P",with no effect
12,"Pericentriolar material 1 protein (Homo sapiens), Q15154 I1975L",with no effect
13,"Pericentriolar material 1 protein (Homo sapiens), Q15154 D1962N",decreasing interaction strength
14,"Pericentriolar material 1 protein (Homo sapiens), Q15154 K1972R",with no effect
15,"Pericentriolar material 1 protein (Homo sapiens), Q15154 I1954C",with no effect
16,"Pericentriolar material 1 protein (Homo sapiens), Q15154 L1969V",with no effect
17,"Pericentriolar material 1 protein (Homo sapiens), Q15154 P1970G",decreasing interaction strength
18,"Pericentriolar material 1 protein (Homo sapiens), Q15154 D1959H",with no effect
19,"Pericentriolar material 1 protein (Homo sapiens), Q15154 V1964P",disrupting interaction strength
20,"Pericentriolar material 1 protein (Homo sapiens), Q15154 K1972M",with no effect
21,"Pericentriolar material 1 protein (Homo sapiens), Q15154 F1963M",disrupting interaction strength
22,"Pericentriolar material 1 protein (Homo sapiens), Q15154 S1958R",with no effect
23,"Pericentriolar material 1 protein (Homo sapiens), Q15154 I1975G",with no effect

row,Substance,effect of a mutation on the interaction
1,"Pericentriolar material 1 protein (Homo sapiens), Q15154 E1960K",decreasing interaction strength
2,"Pericentriolar material 1 protein (Homo sapiens), Q15154 K1972Q",with no effect
3,"Pericentriolar material 1 protein (Homo sapiens), Q15154 K1957M",with no effect
4,"Pericentriolar material 1 protein (Homo sapiens), Q15154 K1965Y",with no effect
5,"Pericentriolar material 1 protein (Homo sapiens), Q15154 V1966F",with no effect
6,"Pericentriolar material 1 protein (Homo sapiens), Q15154 N1953H",with no effect
7,"Pericentriolar material 1 protein (Homo sapiens), Q15154 L1971C",with no effect
8,"Pericentriolar material 1 protein (Homo sapiens), Q15154 L1971A",with no effect
9,"Pericentriolar material 1 protein (Homo sapiens), Q15154 V1966Y",decreasing interaction strength
10,"Pericentriolar material 1 protein (Homo sapiens), Q15154 V1964N",disrupting interaction strength
11,"Pericentriolar material 1 protein (Homo sapiens), Q15154 T1974I",with no effect
12,"Pericentriolar material 1 protein (Homo sapiens), Q15154 V1966P",disrupting interaction strength
13,"Pericentriolar material 1 protein (Homo sapiens), Q15154 I1954K",with no effect
14,"Pericentriolar material 1 protein (Homo sapiens), Q15154 Q1956R",with no effect
15,"Pericentriolar material 1 protein (Homo sapiens), Q15154 Q1956M",with no effect
16,"Pericentriolar material 1 protein (Homo sapiens), Q15154 D1968T",with no effect
17,"Pericentriolar material 1 protein (Homo sapiens), Q15154 S1958W",with no effect
18,"Pericentriolar material 1 protein (Homo sapiens), Q15154 S1958K",with no effect
19,"Pericentriolar material 1 protein (Homo sapiens), Q15154 E1961T",with no effect
20,"Pericentriolar material 1 protein (Homo sapiens), Q15154 S1955D",with no effect
21,"Pericentriolar material 1 protein (Homo sapiens), Q15154 Q1956T",with no effect
22,"Pericentriolar material 1 protein (Homo sapiens), Q15154 Q1956D",with no effect

# From IntAct's records for PubMed 28712572
